According to PMC8238500:

Experiments:
Assay in all cases: BRET (NanoLuc-miniG recruitment to plasma-membrane K-ras-YFP)
[1] = target: NES-NanoLuc-MiniG subtype miniG12; details: 500 ng receptor plasmid; parent: est. 0.020; read off a plot
[2] = target: NES-NanoLuc-MiniG subtype miniGi; details: 500 ng receptor plasmid; parent: est. -0.023; read off a plot
[3] = target: NES-NanoLuc-MiniG subtype miniGs; details: 500 ng receptor plasmid; parent: est. 0.092; read off a plot
[4] = target: NES-NanoLuc-MiniG subtype miniGq; details: 500 ng receptor plasmid; parent: est. -0.030; read off a plot

Sequence: G protein-coupled receptor 3 (GPR3), wild type (from UniProt P46089) DRY-mutant
- response [1]: 0.027 AU
- response [2]: -0.013 AU
- response [3]: 0.011 AU
- response [4]: -0.015 AU
